Reference: patent US20250388676A1 (Sanofi, published 2025)

How the values were obtained:
[1] = target: T1, cynomolgus PD-1 (cynomolgus monkey); assay: flow cytometry on pre-B 300.19 cells expressing cyno PD-1, detection with anti-human IgG Fc F(ab')2 [panel B]
T1 construct: whole, on cells; also called cyno PD-1; cyPD-1

[2] = target: T2, human PD-1 (human, UniProt Q15116 25-288); assay: flow cytometry on pre-B 300.19 cells expressing human PD-1, detection with anti-human IgG Fc F(ab')2 [panel A]
T2 construct: On pre-B 300.19 cells stably expressing human PD-1, on NFAT-RE/PD-1 Jurkat reporter cells and on T cells of hGITR/hPD-1 knock-in mice; also called hPD-1; PD1 (on reporter cells)

[3] = target: T2, human PD-1; assay: receptor occupancy by flow cytometry on activated splenic CD4+ T cells of hGITR/hPD-1 KI mice; free PD-1 detected with competing Anti-hPD-1-BV421, total PD-1 with non-competing Anti-hPD-1 NANOBODY-A647 [panel A]
Text: (§1) Anti-hGITR NANOBODY®-A488 as non-competing agent detecting total GITR Activated T cells were then washed and analyzed on a Cytek® Aurora flow cytometer.

[4] = target: T2, human PD-1; assay: receptor occupancy by flow cytometry on activated splenic CD8+ T cells of hGITR/hPD-1 KI mice; free PD-1 detected with competing Anti-hPD-1-BV421, total PD-1 with non-competing Anti-hPD-1 NANOBODY-A647 [panel A]
Text: as §1

[5] = target: cynomolgus GITR (cynomolgus monkey); assay: cell-based or functional assay
[6] = target: T2, human PD-1; assay: cell-based or functional assay
[7] = target: T3, human GITR (human, UniProt Q9Y5U5 26-241); assay: cell-based or functional assay
T3 sequence (looked up): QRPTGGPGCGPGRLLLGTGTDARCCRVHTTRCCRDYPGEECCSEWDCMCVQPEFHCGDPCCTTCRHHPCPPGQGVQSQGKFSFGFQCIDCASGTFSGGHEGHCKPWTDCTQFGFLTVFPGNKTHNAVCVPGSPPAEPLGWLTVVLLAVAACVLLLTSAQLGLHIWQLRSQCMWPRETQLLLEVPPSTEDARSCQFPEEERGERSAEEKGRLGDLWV

[8] = target: T1, cynomolgus PD-1; assay: flow cytometry on pre-B 300.19 cells expressing cyno PD-1, anti-human IgG Fc detection, 4PL fit
Experimental: (§2) Binding properties of the bispecific molecules and controls to multiple targets expressed on cell surfaces were evaluated with flow cytometry. […] Cell suspensions were analyzed with iQue Screener 3 (Sartorius, Intellicyt). In each washing step, plates were centrifuged for 2 minutes at 300×g at 4° C., supernatants discarded and buffer dispensed by Biotek ELX405 microplate washer (BioTek). Other reagents were added either manually or with ViaFlo (Integra). EC50s were estimated by dose response modelling. Curves were fit using 4 parameter logistic regression in GraphPad (GraphPad Software Inc.).

[9] = target: T2, human PD-1; assay: flow cytometry on pre-B 300.19 cells expressing human PD-1, anti-human IgG Fc detection, 4PL fit
Experimental: as §2

[10] = target: T4, cynomolgus GITR (cynomolgus monkey); assay: flow cytometry on NFkB-NlucP/HEK293 cells expressing cyno GITR, anti-human IgG Fc detection, 4PL fit
T4 construct: whole, on cells; also called cyno GITR; cyGITR
Experimental: as §2

[11] = target: T3, human GITR; assay: flow cytometry on NFkB-NlucP/HEK293 cells expressing human GITR, anti-human IgG Fc detection, 4PL fit
Experimental: as §2

[12] = target: T3, human GITR; assay: receptor occupancy by flow cytometry on activated splenic CD4+ T cells of hGITR/hPD-1 KI mice; free GITR detected with competing Anti-hGITR-BV605, total GITR with non-competing Anti-hGITR NANOBODY-A488 [panel B]
Text: as §1

[13] = target: T3, human GITR; assay: receptor occupancy by flow cytometry on activated splenic CD8+ T cells of hGITR/hPD-1 KI mice; free GITR detected with competing Anti-hGITR-BV605, total GITR with non-competing Anti-hGITR NANOBODY-A488 [panel B]
Text: as §1

T2 sequence (Q15116 25-288 limits assumed): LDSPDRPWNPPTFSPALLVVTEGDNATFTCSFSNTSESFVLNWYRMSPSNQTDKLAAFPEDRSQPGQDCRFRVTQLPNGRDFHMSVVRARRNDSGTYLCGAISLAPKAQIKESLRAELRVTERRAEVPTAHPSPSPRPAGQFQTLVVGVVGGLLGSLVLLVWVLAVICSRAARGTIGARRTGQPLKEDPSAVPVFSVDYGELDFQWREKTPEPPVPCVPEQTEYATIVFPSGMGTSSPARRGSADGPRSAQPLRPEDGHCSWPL

Binder | EC50 (read off the curve) [1] [pM] | EC50 (read off the curve) [2] [pM] | EC50 (read off the curve) [3] [nM] | EC50 (read off the curve) [4] [nM] | cyGITR EC50 (reporter assay) [5] [pM] | hPD-1 IC50 (reporter assay) [6] [pM] | hGITR EC50 (reporter assay) [7] [pM] | EC50 [8] [nM] | EC50 [9] [nM] | EC50 [10] [nM] | EC50 [11] [nM] | EC50 (read off the curve) [12] [nM] | EC50 (read off the curve) [13] [nM]
GITRLmut/anti-PD-1 mAb2 (antibody, V domains shown) VH: QLQLQESGPGLVKPSETLSLTCTVSGGSISSSSYFWGWIRQPPGKGLEWIGSIYRSGSTYYNPSLKSRVTISVDTSKNQFSLKLSSVTAADTAVYYCARGITGDPGDYWGQGTLVTVSS VL: EIVLTQSPATLSLSPGERATLSCGASQSVPINFLAWYQQKPGLAPRLLIYEASSRHTGIPDRFSGSGSGTDFTLTISRLEPEDFAVYYCGQYGSSPYTFGQGTKLEIK | ~400 | ~200 | ~0.4 | ~0.3 |  |  |  |  |  |  |  |  | 
GITRLmut/anti-PD-1 mAb1 (antibody, V domains shown) VH: QLQLQESGPGLVKPSETLSLTCTVSGGSISTSSYFWGWIRQPPGKGLEWIGSIYRSGSTYYNPSLKSRVTISVDTSKNQFSLKLSSVTAADTAVYYCARGITGDPGDYWGQGTLVTVSS VL: EIVLTQSPATLSLSPGERATLSCGASQSVSINFLAWYQQKPGLAPRLLIYEASSRATGIPDRFSGSGSGTDFTLTISRLEPEDFAVYYCQQYGSSPYTFGQGTKLEIK | ~500 | ~300 |  |  |  |  |  |  |  |  |  |  | 
GITRL/anti-PD-1 mAb2 (bispecific antibody, human IgG1, kappa, L234A L235A, Single-chain GITRL trimer inserted between VH and CH1 of each heavy chain; bivalent for PD-1, hexavalent for GITR; also called GITRL trimer/anti-PD-1 mAb2; single-chain GITRL trimer/anti-PD-1 mAb2) heavy: not shown light: EIVLTQSPATLSLSPGERATLSCGASQSVPINFLAWYQQKPGLAPRLLIYEASSRHTGIPDRFSGSGSGTDFTLTISRLEPEDFAVYYCGQYGSSPYTFGQGTKLEIKRTVAAPSVFIFPPSDEQLKSGTASVVCLLNNFYPREAKVQWKVDNALQSGNSQESVTEQDSKDSTYSLSSTLTLSKADYEKHKVYACEVTHQGLSSPVTKSFNRGEC |  |  | ~0.03 | ~0.03 | 8.3 | 500 | 7.7 | 0.37 | 0.24 | 0.034 | 0.034 | ~0.2 | ~0.2
GITRL/anti-PD-1 mAb1 (bispecific antibody, human IgG1, kappa, L234A L235A, Single-chain GITRL trimer inserted between VH and CH1 of each heavy chain; bivalent for PD-1, hexavalent for GITR; also called GITRL trimer/anti-PD-1 mAb1; single-chain GITRL trimer/anti-PD-1 mAb1) heavy: not shown light: EIVLTQSPATLSLSPGERATLSCGASQSVSINFLAWYQQKPGLAPRLLIYEASSRATGIPDRFSGSGSGTDFTLTISRLEPEDFAVYYCQQYGSSPYTFGQGTKLEIKRTVAAPSVFIFPPSDEQLKSGTASVVCLLNNFYPREAKVQWKVDNALQSGNSQESVTEQDSKDSTYSLSSTLTLSKADYEKHKVYACEVTHQGLSSPVTKSFNRGEC |  |  |  |  | 10 | 560 | 8.7 | 0.58 | 0.33 | 0.014 | 0.014 |  | 
